Reference: the nanobody polyreactivity screen of Harvey et al. (2022)

Assay: yeast display, Sf9 membrane polyspecificity reagent, FACS + sequencing; frameworks hold sequencing errors
Method in brief: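 In a synthetic yeast display library (Saccharomyces cerevisiae BJ5465), nanobody expression was induced with galactose for 36–48 hours. FACS gates were set low and high (top ~1%) using anti-HA fluorescence for expression and streptavidin fluorescence for binding of the Sf9 membrane reagent. Each polyreactivity label is drawn from the gate of origin.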

Row | Sequence | polyreactivity (PSR sort gate)
1 | QVQLVESGGGLVQAGGSLRLTCAASGITLGFYAMGWYRQAPGKERELVAAISGRGGSTYYADSVKGRFTISRDNAKNTVYLKMNSLKPEDTPVYYCNALGYYQLVTPFYYWGQGTQVTVSS | high polyreactivity
2 | QVQLVESGGGLVQAGGSLRLTCAASGLTFDSNVMGWYREAPGKERELVAANTYSGRTYYADSEKGRFTISRDNAKNTVYLQMNSLKPEDTAVYYCAARNLAYTRKGYYYWGQGTQVTVSS | high polyreactivity
3 | QVQLVESGGGLVQAGGSLRLTCAASGLTFWWYAMGWYRQAPGKERELVAGITGGGSTSYADSVKGRFTISRDNAKNTVYLQMNSLIQEDTAVYYCAASPYNGQRTWYKYFFLGDYWGQGTQVTVSS | high polyreactivity
4 | QVQLVESGGGLVQAGGSLRLTCAASGNIFVGNDMGWYRQAPGKERELVAAISSGDTTSYADSVKGRFTISRDNAKNTVYLKMNSLKPEETAVYYCAVDRSLSPFAYDYWGQGTQVTVSS | low polyreactivity
5 | QVQLVESGGGLVQAGGSLRLTCAASGNIFYINAMGSYRQAPGKDRELVAAIRGGGSTYYADSVKGRFTISRDNAKKTVYLQMTSLKAEDTAVYYCAARGRRLNPQYRAFGMDYWGQGTQVTVSS | high polyreactivity
6 | QVQLVESGGGLVQAGGSLRLTCAASGRIFDRYVMGWYRQAPGKERELVAAITFSGGRTYYADSVKGRFTISRDNAKNTVYLQMNSLKPEDTAVYYCNRVYYQKIYDYWGQGTQVTVSS | high polyreactivity
7 | QVQLVESGGGLVQAGGSLRLTCAASGRIFDYNDMGWYRQAPGKERELVAAITSDGSTNYADSVKGRFTISRDNAKNTVFLQMNSLKPEDPAVYYCAADTGETFDSIYDYWGQGTQVTVSS | low polyreactivity
8 | QVQLVESGGGLVQAGGSLRLTCAASGRIFGYYVMGWYRQAPGKERELVAAIRSSADSTYYADSVKGRFTISRDNAKNTVYLQMNSLKPEDTAVYYCNADTTGYWSYGFQYYGEDYWGQGTQVTVSS | low polyreactivity
9 | QVQLVESGGGLVQAGGSLRLTCAASGRIFKYYAMGWYRQAPGKEREFVADISRRGGSTYYADSVKGRFTISRDNAKNTVYLQMNSLKPEDTAVYYCAAQSGYIMDYWGQGTQVTVSS | high polyreactivity
10 | QVQLVESGGGLVQAGGSLRLTCAASGRIFRVNGMGWYRQAPWKERDLVAPIRRSGGSTYYADSVKGRFTISRDNSKNNVYLQMKSLKPEDTAVYYCAAPVLLSSYTRYDSWGQGTQVTVSS | high polyreactivity
11 | QVQLVESGGGLVQAGGSLRLTCAASGRIFWINDMVWNRQAPGKESELVAAIRSIGGSTYYADSVKGRFRISRDNAKNTVYLQMNSLKPEDTSVYYCAAKSSPKFRGRYYYWGQGTQVTVSS | low polyreactivity
12 | QVQLVESGGGLVQAGGSLRLTCAASGRIFWRNAMGWYRQAPGKVREFVAAITGTGGSTYYADSVKGRFTISRDTAKNTVYLQMNSLKPEDTAVYYCAARWDYSYRYRLYYWGQGTQVTVSS | high polyreactivity
13 | QVQLVESGGGLVQAGGSLRLTCAASGRTFAIYAMGWYRQAPRKEREFFDAISWSGGDTYYADSVKGRFTISRDNAKNTVYLQMNSLKAEDTAVYYCAARYIDYEGRDLQYELDYWGQGTQVSVSS | low polyreactivity
14 | QVQLVESGGGLVQAGGSLRLTCAASGRTFAWYAMGWYRQAPGKERDLVAAISSAGSTYYADSVKGRFTISRDNAKNTVYLQMNSLKPEDTAVYYCAASFGRYTSGTYYYWGQGTQVTVSS | high polyreactivity
15 | QVQLVESGGGLVQAGGSLRLTCAASGRTFDYYAMGWYRQAPGKERELVAAIRGSGGSTYYADSVKGRFTISRDNAKNTVYLQMNSLKPEDTAVYYCATDPPYFRTPWEYDYWGQGTQVTVSS | low polyreactivity
16 | QVQLVESGGGLVQAGGSLRLTCAASGRTFGRYAMGWYRQAPGKEMDLVAAIRYTGGSTYADSVKGRFTISRDNAKNTVYLQMNRLKPEETAVYYCNRCGAFNTRNEITRYGYWGQGTQVTVSS | low polyreactivity
17 | QVQLVESGGGLVQAGGSLRLTCAASGRTFGTYVMGWYIQAPGKERELVATISRRGGTTYYADSVKGRFTISRDNAKNTVYLQMNSLKPVDNAVYYCAATYFGTRYDYWGQGTQVTVSS | high polyreactivity
